# Assay results from patent publication US20220380734A1, “SYSTEMS AND METHODS FOR LUNG CELL EXPANSION AND DIFFERENTIATION” (DUKE UNIVERSITY, priority 2019, published 2022).
# Assays:
# human alveolospheres = experiment: Human alveolosphere culture with human IL-1β; assay type: cell-based; conditions: three donors, hIL-1β removed at day 7, cultured additional 7-15 days
# Protocol: For human alveolosphere culture, HTII-280^+ human AT2s (1-3×10^3) were resuspended in scrum free medium and mixed with an equal amount of Matrigel and plated in 6 well plates. For detailed mouse and human serum-free, feeder-free (SFFF) media composition, see Table 1 and Table 2.
# The impact of human IL-1β was also tested in human alveolosphere culture. Human IL-1β was removed from medium containing human alveolospheres from three individual donors at day 7 and cultured for an additional 7-15 days (FIG. 7A).
# AEC2s [1] = experiment: AEC2/AEC1 marker immunostaining of mouse organoids (maintenance and differentiation)
# Protocol: Serum free medium contained 10 μM SB431542 (Abcam, Cambridge, UK), 3 μM CHIR99021 (Tocris, Bristol, UK), 1 μM BIRB796 (Tocris, Bristol, UK), 5 μg/ml Heparin (Sigma-Aldrich, St. Louis, Mo.), 50 ng/ml human EGF (Gibco), 10 ng/ml mouse FGF10 (R&D systems. Minneapolis, Minn.), 10 μM Y27632 (Selleckchem, Houston, Tex.), Insulin-Transferrin-Selenium (Thermo, Waltham, Mass.), 1% Glutamax (Thermo, Waltham, Mass.), 2% B27 (Thermo, Waltham, Mass.), 1% N2 (Thermo, Waltham, Mass.), 15 mM HEPES (Thermo, Waltham, Mass.), 1.25 mM N-acetylcysteine (Sigma-Aldrich, St. Louis, Mo.) and 1% Anti-Anti (Thermo, Waltham, Mass.) in Advanced DMEM/F12 (Thermo, Waltham, Mass.). For Alveo-Expansion medium, 10 ng/ml mouse IL-1b (BioLegend, San Diego, Calif.), 10 ng/ml mouse TNFa (BioLegend, San Diego, Calif.) were added into serum free medium. For Alveo-Maintenance medium, 10 ng/ml mouse Noggin (Peprotech, Rocky Hill, N.J.) and 1 μM DMH-1 (Tocris, Bristol, UK.) were added into Alveo-Expansion medium. Alveo-Differentiation medium contained ITS, Glutamax, 5 μg/ml Heparin, 5 ng/ml human EGF, 1 μg/ml mouse FGF10, 10% fetal bovine serum and 1% Anti-Anti in Advanced DMEM/F12.
# For differentiation, mouse alveolospheres were cultured in AMM medium for 10 days were switched to AT2-differentiation medium followed by culture for an additional 7 days, except where stated otherwise. […]
# AEC2s [2] = experiment: Feeder-free (no fibroblasts) mouse AEC2 organoid culture in serum free medium: CFE and organoid size; assay type: cell-based
molecule,measurement,setting,value
Human IL-1β: human interleukin-1β tested in human alveolosphere culture,organoid numbers and the size (growth rate),human alveolospheres,significantly enhanced
"IL6: interleukin-6, 20 ng/mL supplement of serum-free differentiation medium",expression of AEC1 markers including AGER,"AEC2s [1]; mouse AEC2s, 10 days maintenance medium, then serum-free differentiation medium + IL6 20 ng/mL for 10 days",strong expression
"IL1β: mouse interleukin-1β, cytokine added to serum free medium (protein, UniProt P10749 118-269, looked up) Interleukin-1 beta: VPIRQLHYRLRDEQQKSLVLSDPYELKALHLNGQNINQQVIFSMSFVQGEPSNDKIPVALGLKGKNLYLSCVMKDGTPTLQLESVDPKQYPKKKMEKRFVFNKIEVKSKVEFESAEFPNWYISTSQAEHKPVFLGNNSGQDIIDFTMESVSS",CFE,"AEC2s [2]; IL1β removed from culture media on day-3, n=2",19.85%
same,CFE,"AEC2s [2]; IL1β removed from culture media on day-5, n=3, average±SEM",20.35%±0.30%
same,CFE,"AEC2s [2]; IL1β removed from culture media on day-7, n=3, average±SEM",19.33%±0.84%
same,CFE,"AEC2s [2]; continuous IL1β supplementation, n=3, average±SEM",20.91%±1.61%
"BMP4: BMP4 ligand (protein, UniProt P12644 293-408, looked up) Bone morphogenetic protein 4: SPKHHSQRARKKNKNCRRHSLYVDFSDVGWNDWIVAPPGYQAFYCHGDCPFPLADHLNSTNHAIVQTLVNSVNSSIPKACCVPTELSAISMLYLDEYDKVVLKNYQEMVVEGCGCR",complete differentiation of AEC2 to AEC1 cells,AEC2s [1]; organoids treated with BMP4 ligand,not observed
